Laboratory results as given in publication PMC7112362.

Target: MERS-CoV papain-like cysteine protease (PLpro), His-tagged (MERS-CoV)
Test: activity-based probe labelling

| Substance | percent of the protease labeled after 15 min |
| --- | --- |
| K48-linked diUb "in-between" activity-based probe (from UniProt P0CG47 1-75; P0CG47 1-76) | 50% |
| K48-linked diUb "proximal" activity-based probe (from UniProt P0CG47 1-75; P0CG47 1-75) | 50% |
